Data published in patent US20240321457A1 (University of California, published 2024).

T1: UBE2N (human, UniProt P61088 1-152)
T1 construct: endogenous prey from cell lysate; also called UBC13
T1 sequence (looked up): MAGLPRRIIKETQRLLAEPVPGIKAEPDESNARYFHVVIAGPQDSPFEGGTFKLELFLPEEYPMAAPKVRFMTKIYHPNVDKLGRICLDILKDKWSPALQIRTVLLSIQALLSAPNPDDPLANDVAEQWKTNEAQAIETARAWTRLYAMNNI

B1: BRCA1 S1655F (enzyme, human, UniProt P38398 1-1863, looked up)
chain: MDLSALRVEEVQNVINAMQKILECPICLELIKEPVSTKCDHIFCKFCMLKLLNQKKGPSQCPLCKNDITKRSLQESTRFSQLVEELLKIICAFQLDTGLEYANSYNFAKKENNSPEHLKDEVSIIQSMGYRNRAKRLLQSEPENPSLQETSLSVQLSNLGTVRTLRTKQRIQPQKTSVYIELGSDSSEDTVNKATYCSVGDQELLQITPQGTRDEISLDSAKKAACEFSETDVTNTEHHQPSNNDLNTTEKRAAERHPEKYQGSSVSNLHVEPCGTNTHASSLQHENSSLLLTKDRMNVEKAEFCNKSKQPGLARSQHNRWAGSKETCNDRRTPSTEKKVDLNADPLCERKEWNKQKLPCSENPRDTEDVPWITLNSSIQKVNEWFSRSDELLGSDDSHDGESESNAKVADVLDVLNEVDEYSGSSEKIDLLASDPHEALICKSERVHSKSVESNIEDKIFGKTYRKKASLPNLSHVTENLIIGAFVTEPQIIQERPLTNKLKRKRRPTSGLHPEDFIKKADLAVQKTPEMINQGTNQTEQNGQVMNITNSGHENKTKGDSIQNEKNPNPIESLEKESAFKTKAEPISSSISNMELELNIHNSKAPKKNRLRRKSSTRHIHALELVVSRNLSPPNCTELQIDSCSSSEEIKKKKYNQMPVRHSRNLQLMEGKEPATGAKKSNKPNEQTSKRHDSDTFPELKLTNAPGSFTKCSNTSELKEFVNPSLPREEKEEKLETVKVSNNAEDPKDLMLSGERVLQTERSVESSSISLVPGTDYGTQESISLLEVSTLGKAKTEPNKCVSQCAAFENPKGLIHGCSKDNRNDTEGFKYPLGHEVNHSRETSIEMEESELDAQYLQNTFKVSKRQSFAPFSNPGNAEEECATFSAHSGSLKKQSPKVTFECEQKEENQGKNESNIKPVQTVNITAGFPVVGQKDKPVDNAKCSIKGGSRFCLSSQFRGNETGLITPNKHGLLQNPYRIPPLFPIKSFVKTKCKKNLLEENFEEHSMSPEREMGNENIPSTVSTISRNNIRENVFKEASSSNINEVGSSTNEVGSSINEIGSSDENIQAELGRNRGPKLNAMLRLGVLQPEVYKQSLPGSNCKHPEIKKQEYEEVVQTVNTDFSPYLISDNLEQPMGSSHASQVCSETPDDLLDDGEIKEDTSFAENDIKESSAVFSKSVQKGELSRSPSPFTHTHLAQGYRRGAKKLESSEENLSSEDEELPCFQHLLFGKVNNIPSQSTRHSTVATECLSKNTEENLLSLKNSLNDCSNQVILAKASQEHHLSEETKCSASLFSSQCSELEDLTANTNTQDPFLIGSSKQMRHQSESQGVGLSDKELVSDDEERGTGLEENNQEEQSMDSNLGEAASGCESETSVSEDCSGLSSQSDILTTQQRDTMQHNLIKLQQEMAELEAVLEQHGSQPSNSYPSIISDSSALEDLRNPEQSTSEKAVLTSQKSSEYPISQNPEGLSADKFEVSADSSTSKNKEPGVERSSPSKCPSLDDRWYMHSCSGSLQNRNYPSQEELIKVVDVEEQQLEESGPHDLTETSYLPRQDLEGTPYLESGISLFSDDPESDPSEDRAPESARVGNIPSSTSALKVPQLKVAESAQSPAAAHTTDTAGYNAMEESVSREKPELTASTERVNKRMSMVVFGLTPEEFMLVYKFARKHHITLTNLITEETTHVVMKTDAEFVCERTLKYFLGIAGGKWVVSYFWVTQSIKERKMLNEHDFEVRGDVVNGRNHQGPKRARESQDRKIFRGLEICCYGPFTNMPTDQLEWMVQLCGASVVKELSSFTLGTGVHPIVVVQPDAWTEDNGFHAIGQMCEAPVVTREWVLDSVALYQCQELDTYLIPQIPHSHY
notes: 3xFLAG-tagged bait; also called BRCT domain mutant S1655F; 51655F
B2: BRCA1 5382insC (enzyme, human, UniProt P38398 1-1755, looked up)
chain: MDLSALRVEEVQNVINAMQKILECPICLELIKEPVSTKCDHIFCKFCMLKLLNQKKGPSQCPLCKNDITKRSLQESTRFSQLVEELLKIICAFQLDTGLEYANSYNFAKKENNSPEHLKDEVSIIQSMGYRNRAKRLLQSEPENPSLQETSLSVQLSNLGTVRTLRTKQRIQPQKTSVYIELGSDSSEDTVNKATYCSVGDQELLQITPQGTRDEISLDSAKKAACEFSETDVTNTEHHQPSNNDLNTTEKRAAERHPEKYQGSSVSNLHVEPCGTNTHASSLQHENSSLLLTKDRMNVEKAEFCNKSKQPGLARSQHNRWAGSKETCNDRRTPSTEKKVDLNADPLCERKEWNKQKLPCSENPRDTEDVPWITLNSSIQKVNEWFSRSDELLGSDDSHDGESESNAKVADVLDVLNEVDEYSGSSEKIDLLASDPHEALICKSERVHSKSVESNIEDKIFGKTYRKKASLPNLSHVTENLIIGAFVTEPQIIQERPLTNKLKRKRRPTSGLHPEDFIKKADLAVQKTPEMINQGTNQTEQNGQVMNITNSGHENKTKGDSIQNEKNPNPIESLEKESAFKTKAEPISSSISNMELELNIHNSKAPKKNRLRRKSSTRHIHALELVVSRNLSPPNCTELQIDSCSSSEEIKKKKYNQMPVRHSRNLQLMEGKEPATGAKKSNKPNEQTSKRHDSDTFPELKLTNAPGSFTKCSNTSELKEFVNPSLPREEKEEKLETVKVSNNAEDPKDLMLSGERVLQTERSVESSSISLVPGTDYGTQESISLLEVSTLGKAKTEPNKCVSQCAAFENPKGLIHGCSKDNRNDTEGFKYPLGHEVNHSRETSIEMEESELDAQYLQNTFKVSKRQSFAPFSNPGNAEEECATFSAHSGSLKKQSPKVTFECEQKEENQGKNESNIKPVQTVNITAGFPVVGQKDKPVDNAKCSIKGGSRFCLSSQFRGNETGLITPNKHGLLQNPYRIPPLFPIKSFVKTKCKKNLLEENFEEHSMSPEREMGNENIPSTVSTISRNNIRENVFKEASSSNINEVGSSTNEVGSSINEIGSSDENIQAELGRNRGPKLNAMLRLGVLQPEVYKQSLPGSNCKHPEIKKQEYEEVVQTVNTDFSPYLISDNLEQPMGSSHASQVCSETPDDLLDDGEIKEDTSFAENDIKESSAVFSKSVQKGELSRSPSPFTHTHLAQGYRRGAKKLESSEENLSSEDEELPCFQHLLFGKVNNIPSQSTRHSTVATECLSKNTEENLLSLKNSLNDCSNQVILAKASQEHHLSEETKCSASLFSSQCSELEDLTANTNTQDPFLIGSSKQMRHQSESQGVGLSDKELVSDDEERGTGLEENNQEEQSMDSNLGEAASGCESETSVSEDCSGLSSQSDILTTQQRDTMQHNLIKLQQEMAELEAVLEQHGSQPSNSYPSIISDSSALEDLRNPEQSTSEKAVLTSQKSSEYPISQNPEGLSADKFEVSADSSTSKNKEPGVERSSPSKCPSLDDRWYMHSCSGSLQNRNYPSQEELIKVVDVEEQQLEESGPHDLTETSYLPRQDLEGTPYLESGISLFSDDPESDPSEDRAPESARVGNIPSSTSALKVPQLKVAESAQSPAAAHTTDTAGYNAMEESVSREKPELTASTERVNKRMSMVVSGLTPEEFMLVYKFARKHHITLTNLITEETTHVVMKTDAEFVCERTLKYFLGIAGGKWVVSYFWVTQSIKERKMLNEHDFEVRGDVVNGRNHQGPKRARESPGQKDLQGARNLLLWALHQHAHRSTGMDGTAVWCFCGEGAFIIHPWHRCPPNCGCAARCLDRGQWLPCNWADV
notes: 3xFLAG-tagged bait; also called 5832insC

Legend:
UBE2N = biological target: T1, UBE2N; assay: AP-MS, PPI score from compPASS and SAINTexpress, MDA-MB-231 cells
Procedure: For AP-MS experiments, samples were resuspended in 15 μL of MS loading buffer (4% formic acid, 2% acetonitrile) and 2 μL were separated by a reversed-phase gradient over a nanoflow 75 μm ID×25 cm long picotip column packed with 1.9 μM C18 particles (Dr. Maisch). Peptides were directly injected over the course of a 75 min acquisition into a Q-Exactive Plus mass spectrometer (Thermo), or over the course of a 90 min acquisition into a Orbitrap Elite mass spectrometer. […] Peptides and proteins were filtered to 1% false discovery rate in MaxQuant, and identified proteins were then subjected to protein-protein interaction scoring.
All PPI scoring was performed separately for each cell line. For SAINTexpress, control samples in which bait protein was not induced by addition of doxycycline were used. For CompPASS, a stats table representing all WT baits was used. After scoring, the CompPASS WD and Z-score were normalized within a given bait for each cell line. The total list of candidate PPIs was filtered to those that met the following criteria: SAINTexpress BFDR=<0.05, WD percentile by bait>=0.95, and Z-score percentile by bait≤=0.95. PPIs passing all 3 of these criteria were considered to be high-confidence PPIs. To enable visualization and analysis of PPIs by confidence score among these 3 criteria, a PPI score was calculated: [(WD percentile by bait+Z-score percentile by bait)/2)+(1−BFDR)]/2.

BRCA1 S1655F = biological target: B1; assay: AP-MS, MSstats WT vs mutant, MDA-MB-231 cells
BRCA1 M1775R = biological target: T2, BRCA1 M1775R (human, UniProt P38398 1-1863); assay: AP-MS, MSstats WT vs mutant, MDA-MB-231 cells
T2 construct: 3xFLAG-tagged bait; also called BRCT domain mutant M1775R

BRCA1 5382insC = biological target: B2; assay: AP-MS, MSstats WT vs mutant, MDA-MB-231 cells

Row | PPI score (UBE2N) | binding result (BRCA1 S1655F) | binding result (BRCA1 M1775R) | binding result (BRCA1 5382insC) | Binder
1 | < 0.6 |  |  |  | B1
2 |  | no binding | no binding | no binding | RBBP8 (other, human, UniProt Q99708 1-897, looked up, endogenous prey from cell lysate) MNISGSSCGSPNSADTSSDFKDLWTKLKECHDREVQGLQVKVTKLKQERILDAQRLEEFFTKNQQLREQQKVLHETIKVLEDRLRAGLCDRCAVTEEHMRKKQQEFENIRQQNLKLITELMNERNTLQEENKKLSEQLQQKIENDQQHQAAELECEEDVIPDSPITAFSFSGVNRLRRKENPHVRYIEQTHTKLEHSVCANEMRKVSKSSTHPQHNPNENEILVADTYDQSQSPMAKAHGTSSYTPDKSSFNLATVVAETLGLGVQEESETQGPMSPLGDELYHCLEGNHKKQPFEESTRNTEDSLRFSDSTSKTPPQEELPTRVSSPVFGATSSIKSGLDLNTSLSPSLLQPGKKKHLKTLPFSNTCISRLEKTRSKSEDSALFTHHSLGSEVNKIIIQSSNKQILINKNISESLGEQNRTEYGKDSNTDKHLEPLKSLGGRTSKRKKTEEESEHEVSCPQASFDKENAFPFPMDNQFSMNGDCVMDKPLDLSDRFSAIQRQEKSQGSETSKNKFRQVTLYEALKTIPKGFSSSRKASDGNCTLPKDSPGEPCSQECIILQPLNKCSPDNKPSLQIKEENAVFKIPLRPRESLETENVLDDIKSAGSHEPIKIQTRSDHGGCELASVLQLNPCRTGKIKSLQNNQDVSFENIQWSIDPGADLSQYKMDVTVIDTKDGSQSKLGGETVDMDCTLVSETVLLKMKKQEQKGEKSSNEERKMNDSLEDMFDRTTHEEYESCLADSFSQAADEEEELSTATKKLHTHGDKQDKVKQKAFVEPYFKGDERETSLQNFPHIEVVRKKEERRKLLGHTCKECEIYYADMPAEEREKKLASCSRHRFRYIPPNTPENFWEVGFPSTQTCMERGYIKEDLDPCPRPKRRQPYNAIFSPKGKEQKT
3 |  | no binding | no binding | no binding | BRIP1 (enzyme, human, UniProt Q9BX63 1-1249, looked up, endogenous prey from cell lysate) MSSMWSEYTIGGVKIYFPYKAYPSQLAMMNSILRGLNSKQHCLLESPTGSGKSLALLCSALAWQQSLSGKPADEGVSEKAEVQLSCCCACHSKDFTNNDMNQGTSRHFNYPSTPPSERNGTSSTCQDSPEKTTLAAKLSAKKQASIYRDENDDFQVEKKRIRPLETTQQIRKRHCFGTEVHNLDAKVDSGKTVKLNSPLEKINSFSPQKPPGHCSRCCCSTKQGNSQESSNTIKKDHTGKSKIPKIYFGTRTHKQIAQITRELRRTAYSGVPMTILSSRDHTCVHPEVVGNFNRNEKCMELLDGKNGKSCYFYHGVHKISDQHTLQTFQGMCKAWDIEELVSLGKKLKACPYYTARELIQDADIIFCPYNYLLDAQIRESMDLNLKEQVVILDEAHNIEDCARESASYSVTEVQLRFARDELDSMVNNNIRKKDHEPLRAVCCSLINWLEANAEYLVERDYESACKIWSGNEMLLTLHKMGITTATFPILQGHFSAVLQKEEKISPIYGKEEAREVPVISASTQIMLKGLFMVLDYLFRQNSRFADDYKIAIQQTYSWTNQIDISDKNGLLVLPKNKKRSRQKTAVHVLNFWCLNPAVAFSDINGKVQTIVLTSGTLSPMKSFSSELGVTFTIQLEANHIIKNSQVWVGTIGSGPKGRNLCATFQNTETFEFQDEVGALLLSVCQTVSQGILCFLPSYKLLEKLKERWLSTGLWHNLELVKTVIVEPQGGEKTNFDELLQVYYDAIKYKGEKDGALLVAVCRGKVSEGLDFSDDNARAVITIGIPFPNVKDLQVELKRQYNDHHSKLRGLLPGRQWYEIQAYRALNQALGRCIRHRNDWGALILVDDRFRNNPSRYISGLSKWVRQQIQHHSTFESALESLAEFSKKHQKVLNVSIKDRTNIQDNESTLEVTSLKYSTSPYLLEAASHLSPENFVEDEAKICVQELQCPKIITKNSPLPSSIISRKEKNDPVFLEEAGKAEKIVISRSTSPTFNKQTKRVSWSSFNSLGQYFTGKIPKATPELGSSENSASSPPRFKTEKMESKTVLPFTDKCESSNLTVNTSFGSCPQSETIISSLKIDATLTRKNHSEHPLCSEEALDPDIELSLVSEEDKQSTSNRDFETEAEDESIYFTPELYDPEDTDEEKNDLAETDRGNRLANNSDCILAKDLFEIRTIKEVDSAREVKAEDCIDTKLNGILHIEESKIDDIDGNVKTTWINELELGKTHEIEIKNFKPSPSKNKGMFPGFK
4 | < 0.6 |  |  |  | B2
